Results from paper PMC12455937, “Interaction of West Nile virus NS5 with orthoflavivirus SLA RNAs and their effects on viral replication and inhibition” (Journal of Virology, 2025).
Values joined by “and” are separate entries in the source; they are usually repeats but may differ in a detail not shown here. Equal entries are not always repeated.

Target: the molecule itself
Experiment: mass photometry; NS5 alone at 20 nM in MP buffer (50 mM HEPES, pH 7.5, 40 mM NaCl, 10 mM MgCl2); TwoMP (Refeyn); DENV NS3 and NS5 as mass standards; oligomers assigned from peak masses

B1: Full-length lineage II WNV NS5 (enzyme)
chain: not shown
notes: also called full-length NS5; viral polymerase
  stoichiometry N: 2 and 3 and 4
